# Measurements published in US20250011363A1, “OPTIMIZED SHORTENED PEPTIDE THAT BINDS TO ACETYLCHOLINE RECEPTOR, AND USE THEREOF” (SKINMED CO., LTD., priority 2021, published 2025).
# Target: acetylcholine receptor
# Assay: SPR, AchR immobilized on chip, peptide 10 uM
row,Binding affinity (RU),Binder
1,59,RSVSR [5mer-173]
2,75,KSFRK [5mer-192]
3,70,RSICK [5mer-476]
4,81,KGIQK [5mer-496]
5,86,RRYRR [5mer-185]
6,61,RWYRK [5mer-169]
7,58,KRQRK [5mer-485]
8,74,KLISR [5mer-198]
9,75,KQFCK [5mer-482]
10,63,KSYSR [5mer-489]
11,80,RQFLR [5mer-474]
12,75,RVRCR [5mer-191]
13,69,RSYYR [5mer-196]
14,63,RWQLK [5mer-175]
15,62,RLICK [5mer-170]
16,59,KGRQR [5mer-174]
17,75,RWYLR [5mer-480]
18,62,RLVTK [5mer-487]
19,65,RLLQK [5mer-189]
20,74,RWVCR [5mer-187]
21,82,RSRRR [5mer-172]

row,Binding affinity (RU),Binder
1,84,RWRSR [5mer-190]
2,52,KVVTK [5mer-495]
3,70,RVLSK [5mer-182]
4,53,KLISK [5mer-498]
5,54,RWQCK [5mer-468]
6,55,RRYRK [5mer-472]
7,76,KRRCR [5mer-497]
8,68,KLQCR [5mer-184]
9,70,RQYYK [5mer-479]
10,84,KLFSK [5mer-168]
11,57,KQRSK [5mer-470]
12,75,RLVQR [5mer-473]
13,77,RWVRK [5mer-177]
14,81,KQIRR [5mer-491]
15,75,RVQTK [5mer-478]
16,51,RSFQK [5mer-484]
17,74,KQRYR [5mer-180]
18,78,KSYCK [5mer-481]
19,69,RGYLR [5mer-471]
20,51,RSISR [5mer-483]
21,60,RWLLK [5mer-490]

row,Binding affinity (RU),Binder
1,64,KRVYR [5mer-183]
2,52,RVLYK [5mer-176]
3,82,KWFSK [5mer-188]
4,84,KWQSK [5mer-194]
5,64,KRLQR [5mer-186]
6,58,KVRSR [5mer-488]
7,57,KSIRR [5mer-493]
8,87,RRVLK [5mer-178]
9,54,RGFCK [5mer-494]
10,55,RLYTK [5mer-179]
11,56,RRFCK [5mer-475]
12,80,RVVLR [5mer-492]
13,53,RWLQR [5mer-486]
14,72,RSLLK [5mer-181]
15,58,KGYSR [5mer-477]
16,55,KSIQR [5mer-171]
17,69,KSRRR [5mer-469]
18,82,KVVSR [5mer-195]
19,68,RSRQK [5mer-197]
20,80,RVIRK [5mer-193]

# Target: acetylcholine receptor
# Assay: SPR, peptide at 10 uM
row,Binding affinity [RU],Binder
1,26,RASWRK [6mer-2-1112]
2,24,RTAPKK [6mer-2-1100]
3,38,RYTKKR [6mer-2-1104]
4,26,KEDMRK [6mer-2-1109]
5,29,RAHERK [6mer-2-1107]
6,23,REDEKK [6mer-2-1111]
7,34,RKKFRK [6mer-2-1114]
8,43,KPNFRK [6mer-2-1113]
9,39,KYSPRK [6mer-2-1115]
10,36,KKKVRR [6mer-2-1108]
11,21,REDWRR [6mer-2-1099]
12,32,KHKGKR [6mer-2-1102]
13,28,RNNAKK [6mer-2-1105]
14,37,RMTKKK [6mer-2-1110]
15,38,RTKMRR [6mer-2-1101]
16,42,RDAWRK [6mer-2-1103]
17,28,KDKVKR [6mer-2-1106]
